{
  "source": "paper PMC7494816",
  "key": {"[1]": {"target": "Vps75–Rtt109 complex reconstituted at 2:2 from individually purified proteins (Saccharomyces cerevisiae) (UniProt P53853)", "assay": "AUC; sedimentation velocity; 0.5 or 1 equivalent of H3-H4 or H3DM-H4 titrated against Vps75–Rtt109 reconstituted at 2:2 or 2:1 (relative to 7.5 μM Vps75), with 2:2 mixes of Vps75 and histones for reference; 20 mM Tris pH 7.5, 150 mM NaCl, 0.5 mM TCEP, 20°C", "details": "scale: H3-H4 per Vps75 dimer"}, "[2]": {"target": "co-expressed and co-purified 2:1 Vps75–Rtt109 complex (Saccharomyces cerevisiae) (UniProt P53853)", "assay": "SEC-MALS; 20 μM co-expressed 2:1 Vps75–Rtt109 with 20 or 40 μM H3-H4 or H3DM-H4; Superdex 200 Increase 10/300 GL; 20 mM Tris–HCl pH 7.5, 300 mM NaCl, 0.5 mM TCEP"}, "[3]": {"target": "2:1:1 Vps75–Rtt109–(H3-H4) complex formed from co-expressed Vps75–Rtt109 (Saccharomyces cerevisiae | Xenopus laevis) (UniProt P53853)", "assay": "SEC-MALS; 20 μM co-expressed 2:1 Vps75–Rtt109 with 20 or 40 μM H3-H4 or H3DM-H4; Superdex 200 Increase 10/300 GL; 20 mM Tris–HCl pH 7.5, 300 mM NaCl, 0.5 mM TCEP"}, "[4]": {"target": "2:1:1 Vps75–Rtt109–(H3-H4) complex, reconstituted from individually purified Vps75 and Rtt109 (Saccharomyces cerevisiae | Xenopus laevis) (UniProt P53853)", "assay": "AUC; sedimentation velocity; 0.5 or 1 equivalent of H3-H4 or H3DM-H4 titrated against Vps75–Rtt109 reconstituted at 2:2 or 2:1 (relative to 7.5 μM Vps75), with 2:2 mixes of Vps75 and histones for reference; 20 mM Tris pH 7.5, 150 mM NaCl, 0.5 mM TCEP, 20°C"}, "[5]": {"target": "Vps75–Rtt109 complex reconstituted at 2:1 from individually purified proteins (Saccharomyces cerevisiae) (UniProt P53853)", "assay": "AUC; sedimentation velocity; 0.5 or 1 equivalent of H3-H4 or H3DM-H4 titrated against Vps75–Rtt109 reconstituted at 2:2 or 2:1 (relative to 7.5 μM Vps75), with 2:2 mixes of Vps75 and histones for reference; 20 mM Tris pH 7.5, 150 mM NaCl, 0.5 mM TCEP, 20°C"}},
  "data": [
    {"substance": "Xenopus laevis histones H3-H4 (wild type), refolded (from UniProt P84233 1-136; P62799 1-103) (complex)", "values": [
      {"measurement": "stoichiometry N", "setting": "[1]", "value": 1},
      {"measurement": "stoichiometry N (H3-H4 per 2:1 Vps75–Rtt109 (2:1:1))", "setting": "[2]", "value": 1}
    ]},
    {"substance": "2:1:1 Vps75–Rtt109–(H3-H4) complex formed from co-expressed Vps75–Rtt109 (from UniProt P53853 1-264; Q07794 1-436; P84233 1-136; P62799 1-103)", "values": [
      {"measurement": "stoichiometry N (copies of the 2:1:1 sub-complex (4:2:2))", "setting": "[3]", "value": 2}
    ]},
    {"substance": "2:1:1 Vps75–Rtt109–(H3-H4) complex, reconstituted from individually purified Vps75 and Rtt109 (from UniProt P53853 1-264; Q07794 1-436; P84233 1-136; P62799 1-103)", "values": [
      {"measurement": "stoichiometry N (copies of the 2:1:1 complex (4:2:2))", "setting": "[4]", "value": 2}
    ]},
    {"substance": "Xenopus laevis H3DM-H4 (H3 dimerization mutant C110E, L126A, I130A with H4), refolded (from UniProt P62799 1-103) (complex)", "values": [
      {"measurement": "stoichiometry N (H3DM-H4 per Vps75 dimer (printed 2:2:1))", "setting": "[5]", "value": 1},
      {"measurement": "stoichiometry N (H3DM-H4 per 2:1 Vps75–Rtt109 (2:1:1))", "setting": "[2]", "value": 1}
    ]}
  ]
}
